Test results reported in PMC7417313.
pKd: −log10 of the molar value.

Assays:
Experiment in all cases: SPR; His-tagged rH fragment held on a Ni-charged NTA chip (BIAcore X or 3000; 500-1,000 RU, reloaded for each injection), C3 protein injected in HBS-P (10 mM HEPES pH 7.4, 150 mM NaCl, 0.005% P20) at 5 μL/min, 25°C; reference cell with nickel only; equilibrium levels fitted to a one-site equation
[1] = biological target: recombinant Factor H fragment rH 18-20 (human)
[2] = biological target: recombinant Factor H fragment rH 1-7 (human)
[3] = biological target: recombinant Factor H fragment rH 1-6 (human)
[4] = biological target: recombinant Factor H fragment rH 1-8 (human)
[5] = biological target: recombinant Factor H fragment rH 16-20 (human)
[6] = biological target: recombinant Factor H fragment rH 17-20 (human)
[7] = biological target: full-length recombinant Factor H (human) (UniProt P08603)
[8] = biological target: recombinant Factor H fragment rH 19-20 (human)

full-length recombinant Factor H (human), sequence (P08603 19-1231): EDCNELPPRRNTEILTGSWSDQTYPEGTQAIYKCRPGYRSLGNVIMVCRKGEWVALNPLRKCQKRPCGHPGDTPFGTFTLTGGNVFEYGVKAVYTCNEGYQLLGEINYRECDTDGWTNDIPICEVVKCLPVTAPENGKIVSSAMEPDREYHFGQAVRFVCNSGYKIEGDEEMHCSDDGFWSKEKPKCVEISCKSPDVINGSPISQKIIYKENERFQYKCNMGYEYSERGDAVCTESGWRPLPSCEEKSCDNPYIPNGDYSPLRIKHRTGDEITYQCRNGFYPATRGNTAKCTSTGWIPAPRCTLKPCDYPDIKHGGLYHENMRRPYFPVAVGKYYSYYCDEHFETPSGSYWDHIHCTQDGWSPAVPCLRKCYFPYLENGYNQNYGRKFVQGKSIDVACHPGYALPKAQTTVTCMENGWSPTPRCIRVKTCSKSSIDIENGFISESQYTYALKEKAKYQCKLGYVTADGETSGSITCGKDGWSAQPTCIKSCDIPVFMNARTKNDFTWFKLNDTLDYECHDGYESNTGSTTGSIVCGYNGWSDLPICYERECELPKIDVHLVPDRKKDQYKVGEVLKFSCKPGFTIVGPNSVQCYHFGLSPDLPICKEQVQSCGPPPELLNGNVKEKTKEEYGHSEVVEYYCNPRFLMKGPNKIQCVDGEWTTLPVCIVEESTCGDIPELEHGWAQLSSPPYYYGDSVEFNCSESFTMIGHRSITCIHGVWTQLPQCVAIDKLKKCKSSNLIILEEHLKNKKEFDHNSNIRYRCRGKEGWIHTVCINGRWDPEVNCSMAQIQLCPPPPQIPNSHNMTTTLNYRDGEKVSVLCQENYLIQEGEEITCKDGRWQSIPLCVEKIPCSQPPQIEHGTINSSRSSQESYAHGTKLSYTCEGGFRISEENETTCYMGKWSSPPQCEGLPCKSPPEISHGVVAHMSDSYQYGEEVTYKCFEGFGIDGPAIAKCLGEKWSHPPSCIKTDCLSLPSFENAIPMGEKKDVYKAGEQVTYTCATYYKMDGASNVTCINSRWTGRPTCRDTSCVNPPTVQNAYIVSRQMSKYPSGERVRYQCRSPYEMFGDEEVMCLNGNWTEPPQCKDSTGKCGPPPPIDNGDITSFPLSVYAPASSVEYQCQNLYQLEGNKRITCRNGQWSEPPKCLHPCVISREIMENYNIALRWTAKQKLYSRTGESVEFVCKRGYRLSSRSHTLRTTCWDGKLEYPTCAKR
C3d, sequence (P01024 1002-1303): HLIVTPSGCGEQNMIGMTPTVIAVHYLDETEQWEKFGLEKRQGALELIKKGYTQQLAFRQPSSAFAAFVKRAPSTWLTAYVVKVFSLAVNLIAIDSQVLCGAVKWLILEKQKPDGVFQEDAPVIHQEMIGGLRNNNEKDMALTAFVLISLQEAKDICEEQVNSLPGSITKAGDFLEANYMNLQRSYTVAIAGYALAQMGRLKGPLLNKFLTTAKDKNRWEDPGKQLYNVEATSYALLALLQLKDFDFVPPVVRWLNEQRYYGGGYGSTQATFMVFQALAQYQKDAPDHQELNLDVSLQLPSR

pKd [1] | pKd [2] | pKd [3] | pKd [4] | pKd [5] | pKd [6] | pKd [7] | pKd [8] | Substance
5.72 | 7.10 | 7.10 | 6.82 | 5.62 | 5.68 | 7.02 | 5.77 | C3b (domain or fragment)
– | – | – | – | – | – | – | 5.72 | C3d (from UniProt P01024 1002-1303) (domain or fragment)
– | – | 6.40 | – | – | – | – | – | complement component C3 (native C3) (natural protein)
– | – | 5.30 | – | – | – | – | 5.55 | iC3b (domain or fragment)
